B1: K118A: K118A mutation in hTom70 (protein)
chain: MNSLDRAQAAANKGNKYFKAGKYEQAIQCYTEAISLCPTEKNVDLSTFYQNRAAAFEQLQKWKEVAQDCTKAVELNPKYVKALFRRAKAHEKLDNKKECLEDVTAVCILEGFQNQQSMLLADKVLKLLGKEKAKEKYKNREPLMPSPQFIKSYFSSFTDDIISQPMLKGEKSDEDKDKEGEALEVKENSGYLKAKQYMEEENYDKIISECSKEIDAEGKYMAEALLLRATFYLLIGNANAAKPDLDKVISLKEANVKLRANALIKRGSMYMQQQQPLLSTQDFNMAADIDPQNADVYHHRGQLKILLDQVEEAVADFDECIRLRPESALAQAQKCFALYRQAYTGNNSSQIQAAMKGFEEVIKKFPRCAEGYALYAQALTDQQQFGKADEMYDKCIDLEPDNATTYVHKGLLQLQWKQDLDRGLELISKAIEIDNKCDFAYETMGTIEVQRGNMEKAIDMFNKAINLAKSEMEMAHLYSLCDAAHAQTEVAKKYGLKPPTL
B2: N158A: N158A mutation in hTom70 (protein)
chain: MNSLDRAQAAKNKGNKYFKAGKYEQAIQCYTEAISLCPTEKNVDLSTFYQARAAAFEQLQKWKEVAQDCTKAVELNPKYVKALFRRAKAHEKLDNKKECLEDVTAVCILEGFQNQQSMLLADKVLKLLGKEKAKEKYKNREPLMPSPQFIKSYFSSFTDDIISQPMLKGEKSDEDKDKEGEALEVKENSGYLKAKQYMEEENYDKIISECSKEIDAEGKYMAEALLLRATFYLLIGNANAAKPDLDKVISLKEANVKLRANALIKRGSMYMQQQQPLLSTQDFNMAADIDPQNADVYHHRGQLKILLDQVEEAVADFDECIRLRPESALAQAQKCFALYRQAYTGNNSSQIQAAMKGFEEVIKKFPRCAEGYALYAQALTDQQQFGKADEMYDKCIDLEPDNATTYVHKGLLQLQWKQDLDRGLELISKAIEIDNKCDFAYETMGTIEVQRGNMEKAIDMFNKAINLAKSEMEMAHLYSLCDAAHAQTEVAKKYGLKPPTL
B3: K188A: K188A mutation in Tom70 (protein)
chain: MNSLDRAQAAKNKGNKYFKAGKYEQAIQCYTEAISLCPTEKNVDLSTFYQNRAAAFEQLQKWKEVAQDCTKAVELNPKYVAALFRRAKAHEKLDNKKECLEDVTAVCILEGFQNQQSMLLADKVLKLLGKEKAKEKYKNREPLMPSPQFIKSYFSSFTDDIISQPMLKGEKSDEDKDKEGEALEVKENSGYLKAKQYMEEENYDKIISECSKEIDAEGKYMAEALLLRATFYLLIGNANAAKPDLDKVISLKEANVKLRANALIKRGSMYMQQQQPLLSTQDFNMAADIDPQNADVYHHRGQLKILLDQVEEAVADFDECIRLRPESALAQAQKCFALYRQAYTGNNSSQIQAAMKGFEEVIKKFPRCAEGYALYAQALTDQQQFGKADEMYDKCIDLEPDNATTYVHKGLLQLQWKQDLDRGLELISKAIEIDNKCDFAYETMGTIEVQRGNMEKAIDMFNKAINLAKSEMEMAHLYSLCDAAHAQTEVAKKYGLKPPTL
B4: R192A: R192A mutation in Tom70 (protein)
chain: MNSLDRAQAAKNKGNKYFKAGKYEQAIQCYTEAISLCPTEKNVDLSTFYQNRAAAFEQLQKWKEVAQDCTKAVELNPKYVKALFARAKAHEKLDNKKECLEDVTAVCILEGFQNQQSMLLADKVLKLLGKEKAKEKYKNREPLMPSPQFIKSYFSSFTDDIISQPMLKGEKSDEDKDKEGEALEVKENSGYLKAKQYMEEENYDKIISECSKEIDAEGKYMAEALLLRATFYLLIGNANAAKPDLDKVISLKEANVKLRANALIKRGSMYMQQQQPLLSTQDFNMAADIDPQNADVYHHRGQLKILLDQVEEAVADFDECIRLRPESALAQAQKCFALYRQAYTGNNSSQIQAAMKGFEEVIKKFPRCAEGYALYAQALTDQQQFGKADEMYDKCIDLEPDNATTYVHKGLLQLQWKQDLDRGLELISKAIEIDNKCDFAYETMGTIEVQRGNMEKAIDMFNKAINLAKSEMEMAHLYSLCDAAHAQTEVAKKYGLKPPTL

system: biotinylated full-length Hsp90; experiment: BLI, Tom70 mutants binding to biotinylated full-length Hsp90; design: species or system human; conditions: biotinylated full-length Hsp90 immobilized, Tom70 40 µM, Fig S7B
Protocol: Biotinylated Hsp90 proteins were immobilized onto streptavidin biosensor probes, and experiments were conducted in buffer containing 20 mM sodium phosphate (pH 7), 150 mM NaCl, 1% BSA, 0.6 M sucrose, and 1 mM TCEP[68]. […] To combat heterogenous binding, dissociation curves were fit with a two-phase exponential curve. Due to the association rate (kon) being too rapid to quantify, kon values were indirectly estimated by combining koff values obtained from BLI with KD values determined by ITC ( kon=koffBLI/KDITC ). All data are corrected for non-specific binding. Error is given as the standard deviation of at least two measurements.
Supplementary Figure 7: (A) Interacting residues between Tom70 and Hsp90EEVD peptide. (B) BLI sensorgrams of biotinylated full-length Hsp90 assayed to Tom70 mutants. WT refers to “wild-type” Tom70. All Tom70 concentrations are at 40 µM. Dotted line demarcates the beginning of the dissociation phase. (C-D) ITC thermograms and isotherms for the interaction of Tom70 to an (C) amidated Hsp90EEVD peptide and a (D) Hsp90EQVD peptide. N.D. stands for “not-detected” due to the lack of sufficient heat generated.
(1 picture or pasted object on this page, not shown here)

Row | Molecule | binding of Tom70 mutant to Hsp90
1 | B1 | eliminated binding
2 | B2 | eliminated binding
3 | B3 | abrogated binding
4 | B4 | abrogated binding

From doi:10.1101/2025.11.18.689095 (bioRxiv, 2025)
